Experimental data published in PMC5325763 (Cell, 2017).

Target: T1, FLAG-tagged FAAP20 (human, UniProt Q6NZ36 1-180)
T1 sequence (looked up): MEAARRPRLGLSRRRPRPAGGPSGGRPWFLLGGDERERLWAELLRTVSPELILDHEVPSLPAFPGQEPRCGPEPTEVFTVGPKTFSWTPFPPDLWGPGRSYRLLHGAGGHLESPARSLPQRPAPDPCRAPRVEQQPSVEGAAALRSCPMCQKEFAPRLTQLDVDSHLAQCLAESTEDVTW
Assay: LUMIER

- fold weaker binding than wild-type FANCA: ~8 fold
B1: Renilla luciferase-tagged FANCA R880Q (natural protein, human, UniProt O15360-1 1-1455, looked up)
chain: MSDSWVPNSASGQDPGGRRRAWAELLAGRVKREKYNPERAQKLKESAVRLLRSHQDLNALLLEVEGPLCKKLSLSKVIDCDSSEAYANHSSSFIGSALQDQASRLGVPVGILSAGMVASSVGQICTAPAETSHPVLLTVEQRKKLSSLLEFAQYLLAHSMFSRLSFCQELWKIQSSLLLEAVWHLHVQGIVSLQELLESHPDMHAVGSWLFRNLCCLCEQMEASCQHADVARAMLSDFVQMFVLRGFQKNSDLRRTVEPEKMPQVTVDVLQRMLIFALDALAAGVQEESSTHKIVRCWFGVFSGHTLGSVISTDPLKRFFSHTLTQILTHSPVLKASDAVQMQREWSFARTHPLLTSLYRRLFVMLSAEELVGHLQEVLETQEVHWQRVLSFVSALVVCFPEAQQLLEDWVARLMAQAFESCQLDSMVTAFLVVRQAALEGPSAFLSYADWFKASFGSTRGYHGCSKKALVFLFTFLSELVPFESPRYLQVHILHPPLVPGKYRSLLTDYISLAKTRLADLKVSIENMGLYEDLSSAGDITEPHSQALQDVEKAIMVFEHTGNIPVTVMEASIFRRPYYVSHFLPALLTPRVLPKVPDSRVAFIESLKRADKIPPSLYSTYCQACSAAEEKPEDAALGVRAEPNSAEEPLGQLTAALGELRASMTDPSQRDVISAQVAVISERLRAVLGHNEDDSSVEISKIQLSINTPRLEPREHMAVDLLLTSFCQNLMAASSVAPPERQGPWAALFVRTMCGRVLPAVLTRLCQLLRHQGPSLSAPHVLGLAALAVHLGESRSALPEVDVGPPAPGAGLPVPALFDSLLTCRTRDSLFFCLKFCTAAISYSLCKFSSQSRDTLCSCLSPGLIKKFQFLMFRLFSEAQQPLSEEDVASLSWRPLHLPSADWQRAALSLWTHRTFREVLKEEDVHLTYQDWLHLELEIQPEADALSDTERQDFHQWAIHEHFLPESSASGGCDGDLQAACTILVNALMDFHQSSRSYDHSENSDLVFGGRTGNEDIISRLQEMVADLELQQDLIVPLGHTPSQEHFLFEIFRRRLQALTSGWSVAASLQRQRELLMYKRILLRLPSSVLCGSSFQAEQPITARCEQFFHLVNSEMRNFCSHGGALTQDITAHFFRGLLNACLRSRDPSLMVDFILAKCQTKCPLILTSALVWWPSLEPVLLCRWRRHCQSPLPRELQKLQEGRQFASDFLSPEAASPAPNPDWLSAAALHFAIQQVREENIRKQLKKLDCEREELLVFLFFFSLMGLLSSHLTSNSTTDLPKAFHVCAAILECLEKRKISWLALFQLTESDLRLGRLLLRVAPDQHTRLLPFAFYSLLSYFHEDAAIREEAFLHVAVDMYLKLVQLFVAGDTSTVSPPAGRSLELKGQGNPVELITKARLFLLQLIPRCPKKSFSHVAELLADRGDCDPEVSAALQSRQQAAPDADLSQEPHLF
